From article PMC11245488

Target: extracellular domain of human AXL (corresponding to sAXL) fused to C-terminal Fc (UniProt P30530)
Assay: SEC-MALS; human sAXL-Fc in solution; protein-conjugate analysis (protein 140 kDa, glycans ~25 kDa, total 165 kDa); conditions in the Supplemental Material

stoichiometry N: 2
Substance: extracellular domain of human AXL (corresponding to sAXL) fused to C-terminal Fc (from UniProt P30530 26-451) (Fc fusion)
